Conditions: N-glycosylation at N138

Substance	localisation_or_trafficking	expression_or_secretion	other
nicotinic acetylcholine receptor β4 subunit: M467V+S140G, co-expressed with α3	decreases, relative surface ELISA 0.17±0.02 vs 1.00 (WT), P<0.001	–	–
nicotinic acetylcholine receptor β4 subunit: S140G (sequon disruption), co-expressed with α3	abolishes, relative surface ELISA −0.04±0.05 vs 1.00 (WT), P<0.001	no change	–
nicotinic acetylcholine receptor β4 subunit: S140G (sequon disruption), co-expressed with α3: nicotine EC50	–	–	changes, nicotine EC50 22±4 µM (WT) to 48±4 µM, P<0.05; ACh EC50 not significantly changed
nicotinic acetylcholine receptor β4 subunit: S140G (sequon disruption), co-expressed with α4	abolishes, relative surface ELISA −0.13±0.22 vs 1.00 (WT), P<0.001	–	–
nicotinic acetylcholine receptor β4 subunit: S140G (sequon disruption), co-expressed with α4: ACh and nicotine EC50	–	–	changes, ACh EC50 9.36±1.35 to 16.7±2.1 µM (P<0.01); nicotine EC50 1.48±0.17 to 2.75±0.27 µM (P<0.01); sag to ACh 0.90 to 0.76 (P
